Experimental data reported in PMC12216052 (2025).

Molecular target: Notch1(EGF1-36) (amino acids 20-1426) (human, UniProt P46531 20-1426, biotin, chemically at the N-terminus (EZ-Link Sulfo-NHS-Biotin))
Assay: SPR

Chain of Notch1(EGF1-36) (amino acids 20-1426) (P46531 20-1426): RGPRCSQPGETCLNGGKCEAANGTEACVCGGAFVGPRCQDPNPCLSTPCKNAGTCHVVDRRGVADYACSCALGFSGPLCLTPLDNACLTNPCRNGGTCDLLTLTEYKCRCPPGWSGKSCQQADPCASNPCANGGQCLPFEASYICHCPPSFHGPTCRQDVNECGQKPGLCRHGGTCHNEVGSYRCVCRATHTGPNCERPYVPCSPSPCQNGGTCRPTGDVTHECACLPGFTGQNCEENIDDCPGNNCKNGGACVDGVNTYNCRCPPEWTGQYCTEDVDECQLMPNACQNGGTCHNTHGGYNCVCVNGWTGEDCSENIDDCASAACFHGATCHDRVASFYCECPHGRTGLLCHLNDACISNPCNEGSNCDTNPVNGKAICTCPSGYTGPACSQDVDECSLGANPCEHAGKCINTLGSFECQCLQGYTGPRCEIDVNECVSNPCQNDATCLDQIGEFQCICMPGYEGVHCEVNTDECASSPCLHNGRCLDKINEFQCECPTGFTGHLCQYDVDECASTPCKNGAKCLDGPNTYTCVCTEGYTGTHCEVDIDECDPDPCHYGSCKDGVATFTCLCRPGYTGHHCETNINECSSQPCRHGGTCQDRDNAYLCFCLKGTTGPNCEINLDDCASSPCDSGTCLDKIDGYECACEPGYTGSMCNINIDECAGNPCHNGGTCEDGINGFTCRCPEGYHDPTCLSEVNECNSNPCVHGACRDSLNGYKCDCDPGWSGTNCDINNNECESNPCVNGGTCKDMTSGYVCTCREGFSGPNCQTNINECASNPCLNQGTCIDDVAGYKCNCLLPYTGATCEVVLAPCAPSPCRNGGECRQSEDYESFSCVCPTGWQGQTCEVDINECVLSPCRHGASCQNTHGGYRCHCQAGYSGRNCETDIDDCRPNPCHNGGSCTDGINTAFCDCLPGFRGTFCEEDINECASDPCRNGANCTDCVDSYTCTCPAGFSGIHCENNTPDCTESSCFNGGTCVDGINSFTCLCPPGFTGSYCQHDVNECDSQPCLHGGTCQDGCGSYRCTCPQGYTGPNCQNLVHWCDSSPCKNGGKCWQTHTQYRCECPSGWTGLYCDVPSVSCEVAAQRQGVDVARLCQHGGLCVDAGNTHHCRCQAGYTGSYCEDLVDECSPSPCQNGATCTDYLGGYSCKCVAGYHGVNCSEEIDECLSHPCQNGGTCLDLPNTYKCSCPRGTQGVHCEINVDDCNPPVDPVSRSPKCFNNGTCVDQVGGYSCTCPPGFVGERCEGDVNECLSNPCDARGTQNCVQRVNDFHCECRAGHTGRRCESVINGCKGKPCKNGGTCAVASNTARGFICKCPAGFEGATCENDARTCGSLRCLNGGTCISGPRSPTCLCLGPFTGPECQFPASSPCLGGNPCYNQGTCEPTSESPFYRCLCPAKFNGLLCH

B1: Human DLL4 (N-EGF5, amino acids 27-400) (domain or fragment)
chain: SGVFQLQLQEFINERGVLASGRPCEPGCRTFFRVCLKHFQAVVSPGPCTFGTVSTPVLGTNSFAVRDDSSGGGRNPLQLPFNFTWPGTFSLIIEAWHAPGDDLRPEALPPDALISKIAIQGSLAVGQNWLLDEQTSTLTRLRYSYRVICSDNYYGDNCSRLCKKRNDHFGHYVCQPDGNLSCLPGWTGEYCQQPICLSGCHEQNGYCSKPAECLCRPGWQGRLCNECIPHNGCRHGTCSTPWQCTCDEGWGGLFCDQDLNYCTHHSPCKNGATCSNSGQRSYTCTCRPGYTGVDCELELSECDSNPCRNGGSCKDQEDGYHCLCPPGYYGLHCEHSTLSCADSPCFNGGSCRERNQGANYACECPPNFTGSNCE
B1 was tested, and the Kd was 7.7 µM.
